Residue numbers refer to the chain shown, from its start. Where two headings read alike, the source gives them in different places.
B1: 161E5-VH2VL2 (antibody, human IgG1, kappa, V domains shown)
VH: QVQLVQSGAEVKKPGASVKVSCKASGYSFTDYYINWVRQAPGQGLEWIARIFPGSGNAYYNEKFKDRATLTVDKSTSTAYMELSSLRSEDTAVYYCARDDSFYGYWYFDVWGQGTTVTVSS
VL: NIMMTQSPATLSVSPGERATLSCKSSQSVLYSSNQKNYLAWYQQKPGQAPRLLIYWASTRESGVPDRFSGSGSGTEFTLTISSLQSEDFAVYYCHQYLSSYTFGGGTKVEIKR
notes: One of the 5 humanized 161E5 antibodies, human IgG1/kappa; also called humanized antibody 161E5-VH2VL2
B2: 161E5-VH3VL2 (antibody, human IgG1, kappa, V domains shown)
VH: B1 VH with A40R, Y95F
VL: B1 VL
notes: One of the 5 humanized 161E5 antibodies, human IgG1/kappa; also called humanized antibody 161E5-VH3VL2
B3: 161E5-VH2VL3 (antibody, human IgG1, kappa, V domains shown)
VH: B1 VH
VL: B1 VL with A49S
notes: One of the 5 humanized 161E5 antibodies, human IgG1/kappa; also called humanized antibody 161E5VH2VL3
B4: 161E5-VH0VL0 (antibody, human IgG1, kappa, V domains shown)
VH: B1 VH with I48M, A49G, A68V, L70M, V72R, K74T, A79V
VL: B1 VL with N1E, M3V, V64I, D66A
notes: One of the 5 humanized 161E5 antibodies, human IgG1/kappa; also called humanized antibody 161E5-VH0VL0
B5: 161E5-VH3VL3 (antibody, human IgG1, kappa, V domains shown)
VH: B1 VH with A40R, Y95F
VL: B1 VL with A49S
notes: One of the 5 humanized 161E5 antibodies, human IgG1/kappa; also called humanized antibody 161E5VH3VL3
B6: chimeric 161E5 antibody (antibody, human IgG1, kappa, V domains shown)
VH: QVQLKQSGAELVRPGASVKLSCKASGYSFTDYYINWVKQRPGQGLEWIARIFPGSGNAYYNEKFKDKATLTVEKSSSAAYMQLSSLTSEDSAVYFCARDDSFYGYWYFDVWGTGTTVTVSS
VL: NIMMTQSPSSLAVSAGEKVTMSCKSSQSVLYSSNQKNYLAWYQQKPGQSPKLLIYWASTRESGVPDRFTGSGSGTDFTLTISSVQAEDLAVYYCHQYLSSYTFGGGTKLEIKR

Columns and labels:
[1] = target: T1, human VISTA (ECD)-his (Sino Biological, Cat #:13482-H08H) (human, UniProt Q9H7M9 33-194); test: ELISA, plate coated with human VISTA (ECD)-his, OD450 [panel A]
T1 construct: extracellular domain; Bought protein; also called hVISTA(ECD)-his; recombinant human VISTA(ECD)-his; not shown: his tag
T1 sequence (looked up): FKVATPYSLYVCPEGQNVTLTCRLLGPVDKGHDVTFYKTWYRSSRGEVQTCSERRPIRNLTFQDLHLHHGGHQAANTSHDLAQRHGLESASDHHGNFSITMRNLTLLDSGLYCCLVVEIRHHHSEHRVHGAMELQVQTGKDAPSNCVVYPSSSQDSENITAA

[2] = target: T2, monkey VISTA (ECD)-his (Sino Biological, Cat #: 90801-K08H) (cynomolgus monkey); test: ELISA, plate coated with monkey VISTA (ECD)-his, OD450 [panel B]
T2 construct: extracellular domain; Bought protein; also called cynoVISTA(ECD)-his; cynomolgus VISTA (ECD)-his

[3] = target: T1, human VISTA (ECD)-his (Sino Biological, …); test: SPR (BIAcore 8K), human VISTA (ECD)-his coupled to the chip, antibody injected
Protocol: (§1) They were also tested in SPR assays for their binding affinities to human and monkey VISTA with the BIAcore™ 8K instrument (GE Life Sciences). Briefly, 100-200 response units (RU) of human VISTA (ECD)-his protein (Sino Biological, CN, Cat #:13482-H08H) or monkey VISTA (ECD)-his protein (Sino Biological, CN, Cat #:90801-K08H) were coupled to CM5 biosensor chips (Cat #: BR-1005-30, GE Life Sciences), followed by blocking of un-reacted groups with 1M ethanolamine. Serially diluted antibodies at concentrations ranging from 0.3 µM to 10 µM were injected into the SPR running buffer (HBS-EP buffer, pH7.4, GE Life Sciences; US; Cat #:BR-1006-69) at 30 µL/minute. The binding capacitities were calculated with the RUs of blank controls subtracted. The association rate (k_a) and dissociation rate (k_d) were calculated using the one-to-one Langmuir binding model (BIA Evaluation Software, GE Life Sciences). The equilibrium dissociation constant K_D was calculated as the k_d/k_a ratio.

[4] = target: T2, monkey VISTA (ECD)-his (Sino …); test: SPR (BIAcore 8K), monkey VISTA (ECD)-his coupled to the chip, antibody injected
Protocol: as §1

[5] = target: T3, mouse VISTA expressed on HEK293A cells (mouse, UniProt Q9D659 33-308); test: FACS on HEK293A/mouse VISTA cells, MFI [panel C]
T3 construct: also called HEK293A/mouseVISTA; HEK293A/mouse VISTA
T3 sequence: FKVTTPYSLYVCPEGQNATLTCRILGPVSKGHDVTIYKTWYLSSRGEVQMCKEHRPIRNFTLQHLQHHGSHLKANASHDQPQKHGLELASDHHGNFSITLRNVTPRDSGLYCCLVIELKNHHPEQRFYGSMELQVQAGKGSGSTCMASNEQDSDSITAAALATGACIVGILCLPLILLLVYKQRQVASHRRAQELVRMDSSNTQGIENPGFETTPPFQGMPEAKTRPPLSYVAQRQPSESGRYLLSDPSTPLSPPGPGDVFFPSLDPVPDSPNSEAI

[6] = target: T4, mouse VISTA-his (Sino Biological, Cat #:511550-M08H) (mouse, UniProt Q9D659 33-191); test: ELISA, plate coated with mouse VISTA-his, OD450 [panel C]
T4 construct: extracellular domain; Bought protein; also called muVISTA-his; mouse VISTA (ECD)-his; not shown: his tag
T4 sequence (looked up): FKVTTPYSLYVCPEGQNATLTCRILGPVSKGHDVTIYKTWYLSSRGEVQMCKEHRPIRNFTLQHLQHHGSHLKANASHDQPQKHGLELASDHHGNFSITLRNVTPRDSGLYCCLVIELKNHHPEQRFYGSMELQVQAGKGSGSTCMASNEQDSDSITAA

[7] = target: T1, human VISTA (ECD)-his (Sino Biological, …); test: ELISA, plate coated with human VISTA (ECD)-his, OD450 [panel A]; remark: listed apart in the source
[8] = target: T2, monkey VISTA (ECD)-his (Sino …); test: ELISA, plate coated with monkey VISTA (ECD)-his, OD450 [panel B]; remark: listed apart in the source

Binder	EC50 (read off the curve) [1] [µg/mL]	EC50 (read off the curve) [2] [µg/mL]	Kd [3] [nM]	Kd [4] [nM]	binding result [5]	binding result [6]	EC50 (read off the curve) [7] [µg/mL]	EC50 (read off the curve) [8] [µg/mL]
B1	~0.03	~0.03						
B2	~0.03	~0.03						
B3	~0.03	~0.03	0.00236	0.0145				
B4	~0.03	~0.03						
B5	~0.03	~0.03	0.0226	0.0399				
B6	~0.03	~0.03	0.0139		no binding (tested: log 4 ng/ml (10000 ng/ml))	no binding (tested: about log 4.3 ng/ml (about 20000 ng/ml))	~0.02	~0.03
